From US20200040103A1 (Genentech, published 2020)

B1: 8E11 (antibody, V domains shown)
VH: QEQLEESGGDLVKPEGSLTLTCTASGFSFSSSYWICWVRQAPGKGLEWIACVYGLDVNIYYASWTKGRFTISKTSSTTVTLQMTSLTAADTATYFCARGGGSADFGFDLWGPGTLVTVSS
VL: DVVMTQTASPVSAAVGGTVTIKCQASENIYSLLAWYQQKPGQPPKVLIYDASDLASGVPSRFKGSGSGTQFTLTISDLECADAATYYCQATAYGSSGNAFGGGTEVVVK
B2: 8G10 (antibody, V domains shown)
VH: QSLEESGGDLVKPEGSLTLTCTASGFSFSTSYWICWVRQAPGKGLEWIACVYGLDVNIYYASWTEGRFTISKTSSTTVTLQVTSLTAADTATYFCARGGGSADFGFDLWGPGTLVTVSS
VL: DVVMTQTPASVSEPVGGTVTIKCQASENIYSLLAWYQQKPGQPPKVLIYDASDLASGVPSRFKGSGSGTQFTLTISDLECADAATYYCQATAYGSSGNAFGGGTEVVVK
B3: 14C8 (antibody, V domains shown)
VH: EVQLVESGGGLVQPGRSLKLSCTASGFTFSDYNMAWVRQAPKGGLEWVTTISYDAGRTYYRDSVKGRFTISRDNAKRTLSLQMDSLRSEDTATYYCATGIFNYGTDYFDYWGQGVMVTVSS
VL: DIQMTQSPASLSASLGETVTIQCRASEDIYSGLAWYQQKPGKSPQLLIYGATTLHDGVPSRFSGSGSGTQYSLKISSMHSEDEGIYFCHQGLSFPYTFGAGTKLELK
B4: 9H5 Fab (Fab, V domains shown)
VH: EVQLVESGGGLIQPGGSLRLSCAASGFSLSSYGVSWVRQAPGKGLEYVGFIGSGGFAYYASWAKSRFTISRDNSKNTLYLQMNSLRAEDTAVYYCARDDVGGGKSLDIWGQGTLVTVSS
VL: DIQMTQSPSSLSASVGDRVTITCQASQSISSYLSWYQQKPGKAPKLLIYSASTLASGVPSRFSGSGSGTDFTLTISSLQPEDFATYYCHQDYTSSNVDNTFGGGTKVEIKR
notes: Fab used for crystallization with human KLK5; lysines of the complex were methylated; also called Fab 9H5 Humanized
B5: 3-3F5 Fab (Fab, V domains shown)
VH: EVQLLESGGGLVQPGGSLRLSCAVSGFSLNDYGVSWVRQAPGKGLEWVGAIGSSGVAWYANFAKGRFTISRDNSKNTLYLQMNSLRAEDTAVYYCARDRDYGYRADDATSGMDLWGRGTLVTVSS
VL: AIRMTQSPSSFSASTGDRVTITCQASESIGNALAWYQQKPGKAPKLLIYDASDLASGVPSRFSGSGSGTDFTLTISSLQPEDFATYYCQQGDSHNNVDNIFGGGTKVEIKR
notes: Fab used for crystallization with human KLK5; also called 3F5.5 Fab; Fab 3-3F5 Humanized
B6: 14E12 (antibody, V domains shown)
VH: EVQLVESGGGLVRPGRSLRLSCAASGFTFSDYYMAWVRQAPTKGLEWVASISYDGDTTYYRDSVKGRFTISRDNARSSLYLQMDSLRSDDTANYFCTTDGTIPAGSWFAYWGQGTLVTVSS
VL: DIQMTQSPASLSASLGETVTIECLASKNIYRNLAWYQQKPGKSPQFLISDASRLQDGVPSRFTGSDSGSQYSLKINSLQSEDVATYFCQQYHDYPYTFGAGTKLELK
B7: 10C5 Fab (Fab, V domains shown)
VH: EVQLVESGGGLVQPGGSLRLSCAASGFSLSSYGVTWVRQAPGKGLEWIGYITSNYGVSYYASWAKSRSTISRDTSKNTVYLQMGSLRAEDMAVYYCARENPDYGYAYDAWGQGTTVTVSS
VL: AIRMTQSPSSFSASTGDRVTITCQASESISNELSWYQQKPGKAPKLLIYYASTLASGVPSRFSGSGSGTDFTLTISSLQPEDFATYYCAQGFGSSGVENVFGGGTKVEIKR
notes: Fab used for crystallization with human KLK5; lysines of the complex were methylated; also called Fab 10C5 Humanized

Key:
human KLK1 = human KLK1 (human, UniProt P06870 25-262, limits assumed); test: array SPR imaging, antibody immobilized
Sequence of human KLK1 (P06870 25-262 limits assumed): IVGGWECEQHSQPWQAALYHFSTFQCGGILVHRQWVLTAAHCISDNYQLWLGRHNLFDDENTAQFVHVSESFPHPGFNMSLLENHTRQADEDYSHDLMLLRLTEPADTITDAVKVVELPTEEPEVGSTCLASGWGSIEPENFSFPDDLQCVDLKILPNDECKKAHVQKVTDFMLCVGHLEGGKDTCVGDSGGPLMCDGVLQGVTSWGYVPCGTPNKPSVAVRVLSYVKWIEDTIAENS
Protocol: (§1) An array-based SPR imaging system (Carterra™, USA) was used to epitope bin a panel of 288 monoclonal antibodies. Purified antibodies were diluted at 10 μg/ml in 10 mM sodium acetate buffer pH 4.5. Using amine coupling, antibodies were directly immobilized onto a SPR sensorprism CMD 200M chip (XanTec Bioanalytics GmbH, Germany) using a Continuous Flow Microspotter (Carterra™, USA) to create an array of 288 antibodies. For analysis, the IBIS MX96 SPRi (Carterra™, USA) was used to evaluate analytes binding to the immobilized ligands. For kinetic analyses, human, cyno and murine KLK5 were injected for 3 minutes from 0 to 300 nM at 3-fold dilution followed by a dissociation period of 10 minutes. Human KLK1, KLK4, and KLK7 were injected at a single concentration of 500 nM to ensure the specificities of the antibodies. For epitope binning against SPINK9-Fc-SRE, human KLK5 was first injected for 4 minute at 100 nM and was followed by a second 4 minute injection of SPINK9-Fc-SRE at 10 μg/ml. The surface was regenerated with 10 mM glycine pH1.5 between cycles. The experiment was performed at 25° C. in a running buffer of HBS-T buffer (0.01M HEPES pH 7.4, 0.15M NaCl, 0.05% surfactant P20). The kinetic data was processed using Scrubber 2.0 (BioLogic™ Software) and the epitope binning data was processed using Wasatch binning software tool (Carterra™, USA).

human KLK4 = human KLK4 (human, UniProt Q9Y5K2 31-254, limits assumed); test: array SPR imaging, antibody immobilized
Sequence of human KLK4 (Q9Y5K2 31-254 limits assumed): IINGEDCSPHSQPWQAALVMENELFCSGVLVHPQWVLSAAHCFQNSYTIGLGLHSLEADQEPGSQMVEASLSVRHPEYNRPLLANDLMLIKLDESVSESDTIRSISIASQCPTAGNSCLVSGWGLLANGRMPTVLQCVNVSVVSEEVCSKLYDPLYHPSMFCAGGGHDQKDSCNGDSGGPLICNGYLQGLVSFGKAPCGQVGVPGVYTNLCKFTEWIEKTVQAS
Protocol: as §1

human KLK7 = human KLK7 (human, UniProt P49862 30-253, limits assumed); test: array SPR imaging, antibody immobilized
Sequence of human KLK7 (P49862 30-253 limits assumed): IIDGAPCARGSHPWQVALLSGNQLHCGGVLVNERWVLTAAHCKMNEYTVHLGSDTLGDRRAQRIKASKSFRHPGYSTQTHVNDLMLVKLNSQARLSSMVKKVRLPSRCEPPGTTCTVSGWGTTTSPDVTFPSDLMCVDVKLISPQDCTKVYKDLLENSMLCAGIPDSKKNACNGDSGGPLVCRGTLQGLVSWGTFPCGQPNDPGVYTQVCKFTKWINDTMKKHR
Protocol: as §1

[1] = target: T1, Recombinant human KLK5 residues I67-S293 (SEQ ID NO:328) (human, UniProt Q9Y337 67-293, lysine residues methylated in the 10C5 and 9H5 complexes that gave crystals); test: crystal structure of the Fab/KLK5 complex
T1 construct: Expressed in Sf9 cells as ubiquitin fusion; ubiquitin removed with Enterokinase; also called Human KLK5 Crystal Structure Experiments
T1 sequence: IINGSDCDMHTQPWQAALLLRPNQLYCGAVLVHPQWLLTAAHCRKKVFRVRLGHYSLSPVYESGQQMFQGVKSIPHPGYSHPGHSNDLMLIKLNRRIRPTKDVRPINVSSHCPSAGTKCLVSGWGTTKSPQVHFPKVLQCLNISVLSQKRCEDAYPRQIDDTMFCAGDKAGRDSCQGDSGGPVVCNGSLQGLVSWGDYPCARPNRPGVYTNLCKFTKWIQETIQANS
Protocol: Recombinant human KLK5 residues I67-S293 (SEQ ID NO:328) was expressed in a Baculovirus expression system as a C-terminal fusion of ubiquitin with an Enterokinase cleavage site engineered between ubiquitin and KLK5. Sf9 cells were coexpressed with EndoH with 1 mg/mL of Kifunensine. Protein was purified on a HiTrap™ Heparin column. The column was washed with 25 mM TRIS pH 7.5 for 5 CV (column volumes), and then eluted with 0-750 mM NaCl over a gradient of 20 CV. Resultant protein pool was then further purified over 5200 by SEC in 25 mM Tris pH 7.5, 300 mM NaCl. The Ubiquitin was then cleaved using Enterokinase, and sample further purified by SEC again. […] Fab fragments including heavy and light chains were expressed and purified as described. See Carter et al., Biotechnology 10(2), 163-167 (1992). KLK5 was then mixed with each of the Fabs separately, 10C5, 9H5, and 3-3F5, and the complex was purified by SEC in 25 mM HEPES pH 7.2, 100 mM NaCl. […] Crystal for the 10C5 and 9H5 complexes were only obtained when the lysine residues in the protein complexes were methylated. See Walter et al., Structure, 14(11), 1617-1622 (2006).

Row | Binder | binding result (human KLK1) | binding result (human KLK4) | binding result (human KLK7) | buried surface area [1] [Å^2]
1 | B1 | no binding (tested: 500 nM) | no binding (tested: 500 nM) | no binding (tested: 500 nM) | –
2 | B2 | no binding (tested: 500 nM) | no binding (tested: 500 nM) | no binding (tested: 500 nM) | –
3 | B3 | no binding (tested: 500 nM) | no binding (tested: 500 nM) | no binding (tested: 500 nM) | –
4 | B4 | – | – | – | 805
5 | B5 | – | – | – | 956
6 | B6 | no binding (tested: 500 nM) | no binding (tested: 500 nM) | no binding (tested: 500 nM) | –
7 | B7 | – | – | – | ~860
